Reference: US7074765B2, “Synthetic peptide analogs of Arg-Pro-Pro-Gly-Phe as selective inhibitors of thrombin and thrombin activation of protease activated receptors 1 and 4” (The Regents of the University of Michigan, priority 2003, dated 2006)
Where two headings read alike, the source gives them in different places. Ends that are not written are not given here.

Experiments:
[1] = biological target: T1, recombinant protease activated receptor 1 extracellular domain (rPAR1EC) (Homo sapiens, UniProt P25116); assay: Inhibition of RPPGF-biotin binding to rPAR1EC; conditions: 5 mM peptide, 50 μM RPPGF-biotin (FIG. 7); listed in decreasing order
T1 construct: A portion of the extracellular domain of human PAR1 (Ala^26-Ser^99) (rPAR1EC) was expressed in Escherichia coli; His10-DDDDK (pET19b) (N); made in house; host or cells: E. coli BL21(DE3), pET19b
T1 sequence (P25116 26-99): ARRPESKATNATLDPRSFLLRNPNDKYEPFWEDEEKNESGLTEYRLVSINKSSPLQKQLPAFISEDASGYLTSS

[2] = biological target: T2, α-thrombin cleavage of recombinant extracellular fragment of human PAR1 (rPAR1EC) (Homo sapiens, UniProt P00734); assay: Inhibition of α-thrombin-induced cleavage of rPAR1EC; assay type: biochemical
T2 construct: A portion of the extracellular domain of human PAR1 (Ala^26-Ser^99) (rPAR1EC) was expressed in Escherichia coli; with 1 nM of α-thrombin or 0.5 μg/mL thrombocytin (16.7 nM); His10-DDDDK (pET19b) (N); made in house; host or cells: E. coli BL21(DE3), pET19b (rPAR1EC)
Protocol: (§1) Thrombocytin is a snake venom enzyme that activates platelets by cleaving PAR1 at the thrombin cleavage site (Santos et al., FEBS Letters. 18, 3570–3577 (2000)). […] The ability of MAP4-rOicPGF to block thrombocytin cleavage of rPAR1EC was performed as follows. One μg of rPAR1EC in 0.01 mM Tris-HCL, 0.2 M NaCl, pH 8.0 was incubated at 37° C. for 15 min or 45 min with 1 nM of α-thrombin or 0.5 μg/mL thrombocytin (16.7 nM), respectively, in the absence or presence of 0.025 to 1 mM MAP4-rOicPGF. The reaction mixture was separated on SDS-PAGE and stained with Coomassie Brilliant Blue. The cleaved gel images were scanned using the software Scion Image, ScionCorp, Frederick, Md.

thrombin = thrombin (Homo sapiens, UniProt P00734); conditions: read-out: Ki (retrobinders to the active site of thrombin); cited from earlier work
cyclic flow variations = conditions: Folt's model, canine; similar degree as aspirin or clopidogrel; cited from earlier work
[3] = biological target: T3, thrombocytin cleavage of recombinant human PAR1 extracellular domain (Homo sapiens, UniProt P25116); assay: Inhibition of thrombocytin-induced cleavage of rPAR1EC; assay type: biochemical; conditions: 16.7 nM thrombocytin, 45 min, 37° C.; below concentration that blocks the enzyme's proteolytic activity
T3 construct: A portion of the extracellular domain of human PAR1 (Ala^26-Ser^99) (rPAR1EC) was expressed in Escherichia coli; His10-DDDDK (pET19b) (N); made in house; host or cells: E. coli BL21(DE3), pET19b (rPAR1EC)
T3 sequence (P25116 26-99): T1 sequence (P25116 26-99)
Protocol: as §1

mouse platelets = conditions: cited from earlier work
mouse carotid artery = conditions: cited from earlier work
[4] = biological target: T4, SILPAPRGYPGQ, thrombin binding and cleaving region on human PAR4 (Homo sapiens, UniProt Q96RI0); assay: Inhibition of SILPAPRGYPGQ-biotin binding to RPPGC; conditions: 10 micromolar biotinylated-SIL12; 0.001 to 5 mM peptide
T4 construct: host or cells: synthetic peptide
Protocol: Investigations were performed to determine if the compounds in the present invention interact with human PAR4. In FIG. 11, RPPGC (SEQ ID NO:10) was bound to plastic microtiter plates, After washing, biotinylated-[…] (SEQ ID NO:14) was incubated with the cuvette wells in the absence or presence of 0.001 to 5 mM RPPGF (SEQ ID NO:4), TH146, TH26, SIL12 (SEQ ID NO:9), or a scrambled peptide of RPPGF, FPRPG (Phe-Pro-Arg-Pro-Gly, SEQ ID NO:21). Peptide […]

[5] = tested on: lipopolysaccharide-treated rats; conditions: infusion; cited from earlier work
coronary thrombosis = conditions: canine electrolytic injury model; similar to aspirin treatment; cited from earlier work
[6] = tested on: normal human lung fibroblasts (NHLF); assay: α-thrombin-induced calcium mobilization in fibroblasts; assay type: cell-based; conditions: 0.1 mM peptide; α-thrombin-induced calcium mobilization in fibroblasts
Protocol: The second assay developed to assess peptides from the combinatorial libraries uses inhibition of α-thrombin-induced calcium mobilization in fibroblasts. Normal human lung fibroblasts (NHLF) were purchased from Clonetics, San Diego, Calif., an affiliate of Bio-Wittaker, Walkersville, Md. The cytoplasmic free Ca^2+ concentration ([Ca^2+]i) was measured using the fluorescent Ca^2+ indicator fura-2 (Molecular Probes, Inc., Eugene, Oreg.). Suspension of fibroblasts in Hepes-Tyrode's buffer were loaded with fura-2 by incubation at 37° C. with 2 μM fura-2/acetoxymethyl ester for 45 minutes according to the method of Rasmussen et al., J. Biol. Chem. 268, 14322 (1993). The labeled fibroblasts were separated from excess probe by washing by centrifugation at 1000 rpm (180×g). Aliquots of the labeled fibroblasts were transferred into a quartz cuvette with a magnetic stirrer, which was then placed in a thermostatically controlled chamber at 37° C. in a fluorescence spectrophotometer (Perkin-Elmer LS50B spectrofluorometer, Chicago, Ill.). Reagents, test peptide, and α-thrombin (0.25–2 nM), were sequentially added directly to the cuvette. The excitation wavelengths varied between 340 and 380 nm. Fluorescence was measured by recording emitted light at 510 nm as reported by Fisher et al., Mol Pharm. 35, 195 (1989). The minimum emission was determined on a solubilized fibroblast sample in the presence of 10 mM EDTA; maximum emission was determined on the same sample with 10 mM Ca^2+ added. The intrafibroblast free Ca^2+ concentration was calculated by the method of Grykiewicz et al., J. Biol. Chem. 260, 3440 (1985). […] The KD for fura-2 was assumed to be 224 nM. Rmax and Rmin are the maximum and minimum fluorescence ratios measured at the end of the experiment, respectively; Sf2 and Sb2 are the fluorescence values at 380 nm in the absence and presence of saturating [Ca^2+], respectively. The reaction was monitored for 3–5 minutes.

[7] = tested on: platelet activation and deposition; conditions: ex vivo balloon injury; similar to aspirin; cited from earlier work
[8] = biological target: T5, recombinant extracellular fragment of human protease activated receptor 4 (rPAR4EC) (Homo sapiens, UniProt Q96RI0); assay: Inhibition of RPPGF-biotin binding to rPAR4EC; conditions: 5 mM peptide; 50 μM RPPGF-biotin
T5 construct: starting with Gly^18, the first amino acid after the signal peptide is removed, and finishing with Arg^78; made in house; host or cells: E. coli BL21, pET19b-PAR4
T5 sequence (Q96RI0 18-78): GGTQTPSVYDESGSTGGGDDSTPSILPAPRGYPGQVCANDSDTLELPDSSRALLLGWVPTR
Excerpt: The extracellular fragment of human PAR4 has been expressed in bacteria. Human erythroleukemia (HEL) cells were used as a source for PAR4 mRNA. The level of PAR4 mRNA was substantially higher in HEL cells than washed human platelets. […] These primers give a 204 basepair fragment which code for a 61 amino acid hPAR4 protein starting with Gly^18, the first amino acid after the signal peptide is removed, and finishing with Arg^78, the last amino acid of the extracellular fragment (Xu et al. Proc. Natl. Acad. Sci. 95, 6642–6646 (1998)). The pET19b-PAR4 vector after cloning was used to transform BL21 cells to express the recombinant protein. The expressed recombinant protein was purified on a DEAE Sephadex followed by a nickel affinity column (the recombinant protein has a 10 His-tag on its amino terminal end). The isolated, recombinant extracellular domain of PAR4 (rPAREC) is about 15 kDa on 16.5% Tris-Tricine SDS-PAGE. The recombinant protein is recognized as being human PAR4 by detection with an antibody prepared from a peptide (S^41[…]^52) (SEQ ID NO:9) from human PAR4EC. Recombinant PAR4EC was linked to microtiter plate cuvette wells. Goat polyclonal antibody to human PAR1, PAR3, or PAR4 was incubated with the coated microtiter plate cuvette wells and antibody binding was detected. Only antibody to PAR4 detected rPAR4EC linked to the microtiter plate wells. […]

Row | Substance | blocking of RPPGF-biotin binding to rPAR1EC by peptides [1] | effect on α-thrombin cleavage of rPAR1EC ([2]; 1 nM α-thrombin, 15 min, 37° C.) | Ki (thrombin) | effect on cyclic flow variations (cyclic flow variations) | concentration that blocks thrombocytin cleavage of rPAR1EC [3] | mouse platelet aggregation (mouse platelets) | time to thrombosis of the mouse carotid artery (mouse carotid artery) | blocking of biotinylated-SILPAPRGYPGQ binding to RPPGC [4] | time to death [5] | effect on coronary thrombosis (coronary thrombosis) | effect on α-thrombin cleavage of rPAR1EC [2] | Ca^2^+ % Inhibition At 0.1 mM Peptide [6] | platelet activation and deposition [7] | blocking of RPPGF-biotin binding to rPAR4EC [8]
1 | β-Ala-Lys-2Lys-4(Arg-Pro-Pro-Gly-Phe) (RPPGF; also: four copies on beta-Ala-Lys-2Lys-4 branched core) [MAP4-RPPGF, four-branched peptide of RPPGF on a β-alanine-lysine core] | blocked | prevents these enzymes from cleaving rPAR1EC | 1750 µM | prevents cyclic flow variations | 0.2 to 0.5 mM | inhibits mouse platelet aggregation | delays the time to thrombosis | – | – | – | – | – | – | –
2 | rPPGF (RPPGF; not fully specified (residue 1); printed as rPPGF) [Arg-Pro-Pro-Gly-Phe, peptide of the RPPGF analog library] | blocked | – | – | – | – | – | – | blocked | delays the time to death | prevents coronary thrombosis | prevents these enzymes from cleaving rPAR1EC | No Effect | reduced platelet activation and deposition | block
